Results reported in publication PMC4844822.

Target: T1, oxidized wild type Prdx6 (H2O2-treated, over-oxidized protein) (human), P30041
T1 chain: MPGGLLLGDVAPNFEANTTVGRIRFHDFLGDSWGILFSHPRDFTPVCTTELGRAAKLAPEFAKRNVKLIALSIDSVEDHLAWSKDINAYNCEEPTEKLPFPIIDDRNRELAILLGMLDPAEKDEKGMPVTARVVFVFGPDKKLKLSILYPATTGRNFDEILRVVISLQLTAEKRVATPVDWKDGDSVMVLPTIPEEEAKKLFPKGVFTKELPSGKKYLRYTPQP
Experiment: AUC
Settings: remark: other sources report otherwise

B1: oxidized wild type Prdx6 (H2O2-treated, over-oxidized protein), P30041 1-224 (natural protein)
chain: MPGGLLLGDVAPNFEANTTVGRIRFHDFLGDSWGILFSHPRDFTPVCTTELGRAAKLAPEFAKRNVKLIALSIDSVEDHLAWSKDINAYNCEEPTEKLPFPIIDDRNRELAILLGMLDPAEKDEKGMPVTARVVFVFGPDKKLKLSILYPATTGRNFDEILRVVISLQLTAEKRVATPVDWKDGDSVMVLPTIPEEEAKKLFPKGVFTKELPSGKKYLRYTPQP
modifications: here or on the partner: C47 over-oxidized (-SOOH/-SOOOH) by H2O2 treatment; C47 over-oxidized (-SOOH/-SOOOH) by H2O2 treatment
With B1 the stoichiometry N was 2.
